{"source": "paper PMC10150588", "about": "(Journal of chemical information and modeling, 2023)", "key": {"[1]": {"target": "JMJD6 peptide (Homo sapiens) (UniProt Q6NYC1)", "details": "cited from earlier work"}, "[2]": {"target": "LANA peptide (Human herpesvirus 8) (UniProt Q9QR71)", "sequence (Q9QR71 1-23)": "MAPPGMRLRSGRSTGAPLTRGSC", "details": "cited from earlier work"}, "BRD4-ET": {"target": "BRD4-ET", "details": "cited from earlier work"}, "[3]": {"target": "BRG1 peptide (Homo sapiens) (UniProt P51532)", "sequence (P51532 whole entry)": "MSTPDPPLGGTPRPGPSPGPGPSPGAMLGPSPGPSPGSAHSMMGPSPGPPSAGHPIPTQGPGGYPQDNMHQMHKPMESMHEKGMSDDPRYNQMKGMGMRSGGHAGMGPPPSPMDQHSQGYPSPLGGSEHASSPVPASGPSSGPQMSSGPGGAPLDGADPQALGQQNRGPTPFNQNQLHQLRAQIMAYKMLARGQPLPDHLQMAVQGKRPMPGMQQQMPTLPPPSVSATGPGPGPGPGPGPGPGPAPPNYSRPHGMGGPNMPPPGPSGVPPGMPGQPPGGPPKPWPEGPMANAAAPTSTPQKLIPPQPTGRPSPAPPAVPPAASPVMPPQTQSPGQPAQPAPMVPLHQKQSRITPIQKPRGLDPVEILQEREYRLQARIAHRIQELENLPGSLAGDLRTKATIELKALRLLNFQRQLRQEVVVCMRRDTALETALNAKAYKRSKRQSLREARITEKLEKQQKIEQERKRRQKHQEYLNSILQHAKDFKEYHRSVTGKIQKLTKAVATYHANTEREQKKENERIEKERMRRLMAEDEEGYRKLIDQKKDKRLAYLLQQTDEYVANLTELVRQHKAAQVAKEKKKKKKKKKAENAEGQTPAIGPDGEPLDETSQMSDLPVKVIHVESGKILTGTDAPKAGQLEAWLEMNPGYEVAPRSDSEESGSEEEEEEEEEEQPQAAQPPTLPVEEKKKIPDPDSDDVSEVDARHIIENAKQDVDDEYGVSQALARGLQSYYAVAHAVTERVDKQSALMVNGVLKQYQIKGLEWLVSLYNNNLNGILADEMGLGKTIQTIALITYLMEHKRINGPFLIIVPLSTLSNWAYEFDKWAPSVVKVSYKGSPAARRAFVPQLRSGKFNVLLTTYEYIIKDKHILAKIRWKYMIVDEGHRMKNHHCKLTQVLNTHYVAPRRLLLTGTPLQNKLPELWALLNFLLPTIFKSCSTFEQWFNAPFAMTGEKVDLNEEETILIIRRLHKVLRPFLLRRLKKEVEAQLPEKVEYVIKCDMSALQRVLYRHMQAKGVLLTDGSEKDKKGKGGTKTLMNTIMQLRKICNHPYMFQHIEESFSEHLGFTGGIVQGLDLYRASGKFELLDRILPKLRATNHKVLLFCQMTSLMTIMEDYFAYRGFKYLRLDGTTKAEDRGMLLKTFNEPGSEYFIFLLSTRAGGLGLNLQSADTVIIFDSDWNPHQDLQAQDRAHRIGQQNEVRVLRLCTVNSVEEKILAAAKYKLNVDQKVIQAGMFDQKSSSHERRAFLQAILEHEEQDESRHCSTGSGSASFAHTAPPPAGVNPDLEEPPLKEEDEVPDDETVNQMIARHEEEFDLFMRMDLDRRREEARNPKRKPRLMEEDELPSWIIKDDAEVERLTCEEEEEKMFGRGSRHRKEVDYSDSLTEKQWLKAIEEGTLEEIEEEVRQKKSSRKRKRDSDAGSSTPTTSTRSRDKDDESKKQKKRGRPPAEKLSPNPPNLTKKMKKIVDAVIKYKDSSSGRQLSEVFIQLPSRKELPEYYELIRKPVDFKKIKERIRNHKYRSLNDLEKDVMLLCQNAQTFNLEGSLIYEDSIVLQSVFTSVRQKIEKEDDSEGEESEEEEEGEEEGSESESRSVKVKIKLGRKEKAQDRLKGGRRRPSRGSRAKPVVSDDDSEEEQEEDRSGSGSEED", "details": "cited from earlier work"}, "[4]": {"target": "CHD4 peptide (Homo sapiens) (UniProt Q14839)", "sequence (Q14839 whole entry)": "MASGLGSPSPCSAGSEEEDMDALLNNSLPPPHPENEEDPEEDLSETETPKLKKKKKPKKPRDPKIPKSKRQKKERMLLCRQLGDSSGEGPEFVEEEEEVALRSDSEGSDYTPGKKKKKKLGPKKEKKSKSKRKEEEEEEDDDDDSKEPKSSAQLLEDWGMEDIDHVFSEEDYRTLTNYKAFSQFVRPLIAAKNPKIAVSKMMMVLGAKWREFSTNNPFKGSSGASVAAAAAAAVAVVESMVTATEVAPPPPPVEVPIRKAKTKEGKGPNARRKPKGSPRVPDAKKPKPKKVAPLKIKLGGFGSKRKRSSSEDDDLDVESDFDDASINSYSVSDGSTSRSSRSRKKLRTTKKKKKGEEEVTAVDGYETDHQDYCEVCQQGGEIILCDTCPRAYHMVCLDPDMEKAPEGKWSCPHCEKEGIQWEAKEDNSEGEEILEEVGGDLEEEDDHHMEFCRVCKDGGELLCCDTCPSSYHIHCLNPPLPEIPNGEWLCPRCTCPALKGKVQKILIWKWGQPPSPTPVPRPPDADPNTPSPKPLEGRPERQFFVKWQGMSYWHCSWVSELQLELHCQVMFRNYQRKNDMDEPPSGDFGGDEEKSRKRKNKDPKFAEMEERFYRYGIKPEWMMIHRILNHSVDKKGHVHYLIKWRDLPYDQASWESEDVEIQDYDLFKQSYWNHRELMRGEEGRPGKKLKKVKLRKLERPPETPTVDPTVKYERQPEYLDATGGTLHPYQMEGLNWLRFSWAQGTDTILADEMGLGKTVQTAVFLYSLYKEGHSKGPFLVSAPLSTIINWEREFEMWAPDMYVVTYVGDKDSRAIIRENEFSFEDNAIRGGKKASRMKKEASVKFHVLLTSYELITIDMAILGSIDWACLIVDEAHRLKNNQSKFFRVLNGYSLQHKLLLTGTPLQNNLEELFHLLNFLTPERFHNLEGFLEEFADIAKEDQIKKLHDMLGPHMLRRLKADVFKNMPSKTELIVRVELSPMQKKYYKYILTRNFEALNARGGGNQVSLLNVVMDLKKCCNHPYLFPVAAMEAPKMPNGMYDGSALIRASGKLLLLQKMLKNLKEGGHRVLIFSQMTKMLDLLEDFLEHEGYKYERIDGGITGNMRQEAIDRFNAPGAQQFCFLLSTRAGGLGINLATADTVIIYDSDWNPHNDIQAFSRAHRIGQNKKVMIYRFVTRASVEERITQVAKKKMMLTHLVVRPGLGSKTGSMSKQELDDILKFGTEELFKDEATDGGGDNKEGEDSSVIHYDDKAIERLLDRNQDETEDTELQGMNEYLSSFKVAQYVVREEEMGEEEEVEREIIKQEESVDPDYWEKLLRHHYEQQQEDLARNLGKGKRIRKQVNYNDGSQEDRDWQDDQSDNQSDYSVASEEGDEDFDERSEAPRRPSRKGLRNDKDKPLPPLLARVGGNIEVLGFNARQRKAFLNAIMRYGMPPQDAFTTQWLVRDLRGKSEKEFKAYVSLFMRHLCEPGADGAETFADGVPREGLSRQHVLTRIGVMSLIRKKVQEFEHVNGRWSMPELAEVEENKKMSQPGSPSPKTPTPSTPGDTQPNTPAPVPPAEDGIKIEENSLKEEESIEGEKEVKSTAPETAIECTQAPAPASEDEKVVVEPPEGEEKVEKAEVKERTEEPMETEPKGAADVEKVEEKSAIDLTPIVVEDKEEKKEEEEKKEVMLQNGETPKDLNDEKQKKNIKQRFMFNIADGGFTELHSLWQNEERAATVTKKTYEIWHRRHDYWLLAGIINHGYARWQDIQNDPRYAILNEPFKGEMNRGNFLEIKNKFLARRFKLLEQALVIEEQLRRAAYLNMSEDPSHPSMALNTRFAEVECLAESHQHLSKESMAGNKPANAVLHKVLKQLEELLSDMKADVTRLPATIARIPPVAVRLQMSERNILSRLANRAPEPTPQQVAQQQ", "details": "cited from earlier work"}, "[5]": {"target": "NSD3 short peptide (Homo sapiens) (UniProt Q9BZ95)", "sequence (Q9BZ95 whole entry)": "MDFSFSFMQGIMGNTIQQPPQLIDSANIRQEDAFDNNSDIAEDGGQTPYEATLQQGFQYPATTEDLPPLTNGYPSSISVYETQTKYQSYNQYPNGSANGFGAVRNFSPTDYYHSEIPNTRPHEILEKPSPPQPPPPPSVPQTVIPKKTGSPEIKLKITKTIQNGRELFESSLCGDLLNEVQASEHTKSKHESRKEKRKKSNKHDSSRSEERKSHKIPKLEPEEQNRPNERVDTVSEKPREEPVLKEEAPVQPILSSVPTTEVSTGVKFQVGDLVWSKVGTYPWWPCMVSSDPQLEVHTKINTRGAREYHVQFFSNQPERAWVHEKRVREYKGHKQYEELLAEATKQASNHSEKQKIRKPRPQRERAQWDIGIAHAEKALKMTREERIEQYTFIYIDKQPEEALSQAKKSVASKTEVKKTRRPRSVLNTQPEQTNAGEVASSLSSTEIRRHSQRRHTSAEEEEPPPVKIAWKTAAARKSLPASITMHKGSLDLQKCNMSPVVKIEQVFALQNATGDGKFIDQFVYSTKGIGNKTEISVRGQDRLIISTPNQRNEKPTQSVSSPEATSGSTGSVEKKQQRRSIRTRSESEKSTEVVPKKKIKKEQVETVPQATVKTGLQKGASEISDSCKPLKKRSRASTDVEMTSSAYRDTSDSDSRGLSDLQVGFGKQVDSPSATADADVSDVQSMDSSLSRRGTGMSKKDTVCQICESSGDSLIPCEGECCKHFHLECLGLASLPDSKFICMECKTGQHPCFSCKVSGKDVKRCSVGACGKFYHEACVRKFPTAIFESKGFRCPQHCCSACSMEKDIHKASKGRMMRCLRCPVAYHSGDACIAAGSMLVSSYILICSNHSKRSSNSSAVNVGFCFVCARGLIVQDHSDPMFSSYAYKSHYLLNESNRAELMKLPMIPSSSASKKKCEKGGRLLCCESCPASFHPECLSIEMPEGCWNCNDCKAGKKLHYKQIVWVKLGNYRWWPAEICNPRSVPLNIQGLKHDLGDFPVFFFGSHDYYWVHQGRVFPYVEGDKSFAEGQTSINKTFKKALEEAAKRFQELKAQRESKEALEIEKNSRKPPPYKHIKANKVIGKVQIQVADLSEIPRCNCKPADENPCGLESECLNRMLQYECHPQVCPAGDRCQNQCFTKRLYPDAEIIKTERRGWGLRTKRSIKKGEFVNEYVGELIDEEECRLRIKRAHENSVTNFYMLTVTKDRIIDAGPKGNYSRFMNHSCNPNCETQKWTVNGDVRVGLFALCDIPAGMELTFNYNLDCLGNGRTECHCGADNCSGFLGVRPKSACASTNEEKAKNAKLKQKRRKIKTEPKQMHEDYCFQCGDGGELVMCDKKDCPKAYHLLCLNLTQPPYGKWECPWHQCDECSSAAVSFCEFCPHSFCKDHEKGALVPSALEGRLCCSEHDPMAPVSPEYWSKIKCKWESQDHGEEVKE", "details": "cited from earlier work"}, "BRD3-ET": {"tested_on": "BRD3-ET", "details": "cited from earlier work"}, "BRD4 ET (Homo sapiens) [6]": {"target": "BRD4 ET (Homo sapiens) (UniProt O60885)", "details": "cited from earlier work"}, "BRD3 ET [7]": {"target": "T1, BRD3 ET (Homo sapiens, UniProt Q15059)", "T1 sequence (Q15059 554-640)": "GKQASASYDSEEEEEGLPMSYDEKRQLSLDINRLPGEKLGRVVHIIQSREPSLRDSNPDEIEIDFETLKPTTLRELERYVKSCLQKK", "assay": "Isothermal titration calorimetry, peptide binding to BRD3 ET", "parameters": "species or system murine", "details": "ITC, 20 mM Tris, 150 mM NaCl, 1 mM TCEP"}, "BRD3 ET [8]": {"target": "T1, BRD3 ET", "details": "cited from earlier work"}, "BRD3 ET [9]": {"target": "T1, BRD3 ET", "details": "cited from earlier work", "remark": "listed apart in the source"}, "BRD4 ET (Homo sapiens) [10]": {"target": "BRD4 ET (Homo sapiens) (UniProt O60885)", "details": "cited from earlier work", "remark": "listed apart in the source"}}, "note": "Values joined by “and” are separate entries in the source; they are usually repeats but may differ in a detail not shown here. Equal entries are not always repeated. Where two headings read alike, the source gives them in different places. No end group written: not given here.", "data": [{"substance": "BRD4 ET (from UniProt O60885)", "values": [{"measurement": "Kd", "setting": "[1]", "value": 160, "unit": "µM"}, {"measurement": "Kd", "setting": "[2]", "value": 635, "unit": "µM"}]}, {"substance": "NLQSSIVKFKKPLPLTQPG [LANA]", "values": [{"measurement": "Kd", "setting": "BRD4-ET; BRD4-ET:LANA", "value": "~635", "unit": "µM"}]}, {"substance": "BRD3 ET (from UniProt Q15059)", "values": [{"measurement": "Kd", "setting": "[3]", "value": 7, "unit": "µM"}, {"measurement": "Kd", "setting": "[4]", "value": 95, "unit": "µM"}, {"measurement": "Kd", "setting": "[5]", "value": 950, "unit": "µM"}]}, {"substance": "KWTLERLKRKYRN [JMJD6]", "values": [{"measurement": "relative binding strength", "setting": "BRD4-ET; BRD4-ET binding of JMJD6 compared with NSD3 and LANA binding BRD3-ET", "value": "reported to bind BRD4-ET more strongly than NSD3 and LANA bind BRD3-ET"}, {"measurement": "Kd", "setting": "BRD4-ET; BRD4-ET:JMJD6, 20 °C", "value": "~160", "unit": "µM"}, {"measurement": "relative binding to BRD3-ET vs BRD4-ET", "setting": "BRD3-ET; BRD3-ET compared with BRD4-ET", "value": "weak or no binding"}]}, {"substance": "LANA 1098-1116 (from UniProt Q9QR71)", "values": [{"measurement": "Kd", "setting": "BRD4 ET (Homo sapiens) [6]", "value": 635, "unit": "µM"}]}, {"substance": "SRLTWRVQRSQNPLKIRLTREAP [TP]", "values": [{"measurement": "Kd", "setting": "BRD3 ET [7]; pH 7.5, 10 °C", "value": "0.013 ± 0.01", "unit": "µM"}, {"measurement": "Kd", "setting": "BRD3 ET [7]; pH 7.5, 25 °C", "value": "0.09 ± 0.01", "unit": "µM"}]}, {"substance": "CHD4 290-301 (from UniProt Q14839)", "values": [{"measurement": "Kd", "setting": "BRD3 ET [8]", "value": 95, "unit": "µM"}]}, {"substance": "KVAPLKIKLGGF [CHD4]", "values": [{"measurement": "Kd", "setting": "BRD3-ET; BRD3-ET", "value": "~95 µM and < 100 µM"}]}, {"substance": "BRG1 1591-1602 (from UniProt P51532)", "values": [{"measurement": "Kd", "setting": "BRD3 ET [9]", "value": 7, "unit": "µM"}]}, {"substance": "JMJD6 84-96 (from UniProt Q6NYC1)", "values": [{"measurement": "Kd", "setting": "BRD4 ET (Homo sapiens) [10]", "value": 160, "unit": "µM"}]}]}
